In the supplement of paper PMC6379048 one finds EC50 data, which are given here for three sequences.

Assay in all cases: EC50 of free RNA motif oligo competing protein binding to immobilised probe
The target in one data set is T1, CELF1 (UniProt Q92879).
T1 sequence: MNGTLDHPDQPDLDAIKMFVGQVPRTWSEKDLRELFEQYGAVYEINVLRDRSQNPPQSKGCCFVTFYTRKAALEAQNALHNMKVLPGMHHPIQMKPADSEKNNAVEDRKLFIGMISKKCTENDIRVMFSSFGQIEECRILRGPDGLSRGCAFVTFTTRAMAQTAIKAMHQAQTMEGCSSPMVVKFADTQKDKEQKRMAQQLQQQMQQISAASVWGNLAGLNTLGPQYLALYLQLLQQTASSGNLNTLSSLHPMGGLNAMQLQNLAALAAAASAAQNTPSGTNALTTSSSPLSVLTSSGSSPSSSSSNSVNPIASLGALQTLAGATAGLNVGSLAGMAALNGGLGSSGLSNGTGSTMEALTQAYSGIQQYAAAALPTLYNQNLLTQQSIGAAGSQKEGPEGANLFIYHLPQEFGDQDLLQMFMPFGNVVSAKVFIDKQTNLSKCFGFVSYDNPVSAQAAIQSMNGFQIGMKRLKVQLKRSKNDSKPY
The procedure:
(§1)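 Competition-binding assay: HEK293-FT cell lysate (2.5 mg protein) pre-incubated 1 h at 4°C with free motif-containing RNA oligos (0 to 30 µM, 12 doses), then pulled down with the same 5'-amino-C6 RNA oligos immobilised on NHS-Sepharose beads (30 min, 4°C). Bound proteins were quantified by label-free LC-MS/MS and normalised to the water control. EC50 came from a four-parameter log-logistic fit; Kd = EC50 x depletion factor. Random/reversed control probes are dropped.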

The target of the next data set is T2, CELF2 (UniProt O95319).
T2 sequence: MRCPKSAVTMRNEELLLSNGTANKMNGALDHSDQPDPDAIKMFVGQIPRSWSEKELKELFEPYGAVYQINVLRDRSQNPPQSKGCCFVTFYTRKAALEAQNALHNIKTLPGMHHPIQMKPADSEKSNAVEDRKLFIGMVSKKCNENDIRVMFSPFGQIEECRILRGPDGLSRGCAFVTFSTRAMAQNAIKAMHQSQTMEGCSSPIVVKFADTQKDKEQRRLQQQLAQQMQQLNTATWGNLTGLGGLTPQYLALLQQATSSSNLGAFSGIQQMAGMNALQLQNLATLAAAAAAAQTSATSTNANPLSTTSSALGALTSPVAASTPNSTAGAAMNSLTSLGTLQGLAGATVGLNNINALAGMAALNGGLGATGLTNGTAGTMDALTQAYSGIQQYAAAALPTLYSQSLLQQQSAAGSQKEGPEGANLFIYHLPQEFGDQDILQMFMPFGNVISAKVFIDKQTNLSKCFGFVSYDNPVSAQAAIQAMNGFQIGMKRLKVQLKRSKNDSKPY
The procedure: as §1

Another data set concerns the target DHX9 (UniProt Q08211). The procedure: as §1
Another data set has as its target T3, DIS3L2 (UniProt Q8IYB7).
T3 sequence: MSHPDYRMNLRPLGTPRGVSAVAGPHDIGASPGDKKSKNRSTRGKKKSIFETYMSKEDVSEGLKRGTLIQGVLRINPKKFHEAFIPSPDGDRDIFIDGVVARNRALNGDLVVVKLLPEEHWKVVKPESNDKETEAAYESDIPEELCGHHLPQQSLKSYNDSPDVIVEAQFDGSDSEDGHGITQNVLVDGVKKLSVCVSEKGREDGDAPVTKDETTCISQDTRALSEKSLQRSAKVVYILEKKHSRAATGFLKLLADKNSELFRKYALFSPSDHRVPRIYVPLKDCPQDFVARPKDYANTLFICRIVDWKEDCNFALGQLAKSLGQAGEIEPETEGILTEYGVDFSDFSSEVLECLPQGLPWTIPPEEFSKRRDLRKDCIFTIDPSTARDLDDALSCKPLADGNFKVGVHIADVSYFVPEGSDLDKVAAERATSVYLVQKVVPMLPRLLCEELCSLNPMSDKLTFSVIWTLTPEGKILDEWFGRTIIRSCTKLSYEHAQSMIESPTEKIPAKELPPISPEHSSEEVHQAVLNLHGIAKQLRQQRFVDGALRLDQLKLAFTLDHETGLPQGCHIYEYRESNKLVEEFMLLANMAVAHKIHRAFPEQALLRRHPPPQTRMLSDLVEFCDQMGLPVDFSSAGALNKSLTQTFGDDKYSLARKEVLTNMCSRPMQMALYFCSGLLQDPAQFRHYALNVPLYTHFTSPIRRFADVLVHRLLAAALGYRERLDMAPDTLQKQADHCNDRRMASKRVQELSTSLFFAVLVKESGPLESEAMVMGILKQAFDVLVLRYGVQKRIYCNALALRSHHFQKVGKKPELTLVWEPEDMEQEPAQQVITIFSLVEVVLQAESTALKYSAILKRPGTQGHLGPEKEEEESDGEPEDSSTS
The procedure: as §1

Another data set concerns the target T4, LIN28B (UniProt Q6ZN17).
T4 sequence: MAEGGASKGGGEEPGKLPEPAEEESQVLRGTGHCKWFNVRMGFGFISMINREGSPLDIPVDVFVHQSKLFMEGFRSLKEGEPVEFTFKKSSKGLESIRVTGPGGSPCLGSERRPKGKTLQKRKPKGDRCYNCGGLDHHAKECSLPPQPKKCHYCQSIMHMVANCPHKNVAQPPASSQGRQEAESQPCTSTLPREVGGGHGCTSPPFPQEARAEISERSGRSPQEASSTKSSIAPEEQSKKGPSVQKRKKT
The procedure: as §1

The target in the next data set is PHAX (UniProt Q9H814). The protocol: as §1
Sequence of PHAX (Q9H814 whole entry): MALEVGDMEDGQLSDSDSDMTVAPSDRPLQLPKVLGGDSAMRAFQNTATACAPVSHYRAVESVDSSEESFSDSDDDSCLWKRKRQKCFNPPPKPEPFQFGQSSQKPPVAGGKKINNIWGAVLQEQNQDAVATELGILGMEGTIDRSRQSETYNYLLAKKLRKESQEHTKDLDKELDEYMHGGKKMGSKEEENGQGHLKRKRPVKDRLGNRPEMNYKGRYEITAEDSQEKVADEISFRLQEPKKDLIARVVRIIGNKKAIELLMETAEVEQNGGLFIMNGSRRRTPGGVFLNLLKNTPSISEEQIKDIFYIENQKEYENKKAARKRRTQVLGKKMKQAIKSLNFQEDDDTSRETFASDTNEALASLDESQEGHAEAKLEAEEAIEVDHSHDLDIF

Sequence of DHX9 (Q08211 whole entry): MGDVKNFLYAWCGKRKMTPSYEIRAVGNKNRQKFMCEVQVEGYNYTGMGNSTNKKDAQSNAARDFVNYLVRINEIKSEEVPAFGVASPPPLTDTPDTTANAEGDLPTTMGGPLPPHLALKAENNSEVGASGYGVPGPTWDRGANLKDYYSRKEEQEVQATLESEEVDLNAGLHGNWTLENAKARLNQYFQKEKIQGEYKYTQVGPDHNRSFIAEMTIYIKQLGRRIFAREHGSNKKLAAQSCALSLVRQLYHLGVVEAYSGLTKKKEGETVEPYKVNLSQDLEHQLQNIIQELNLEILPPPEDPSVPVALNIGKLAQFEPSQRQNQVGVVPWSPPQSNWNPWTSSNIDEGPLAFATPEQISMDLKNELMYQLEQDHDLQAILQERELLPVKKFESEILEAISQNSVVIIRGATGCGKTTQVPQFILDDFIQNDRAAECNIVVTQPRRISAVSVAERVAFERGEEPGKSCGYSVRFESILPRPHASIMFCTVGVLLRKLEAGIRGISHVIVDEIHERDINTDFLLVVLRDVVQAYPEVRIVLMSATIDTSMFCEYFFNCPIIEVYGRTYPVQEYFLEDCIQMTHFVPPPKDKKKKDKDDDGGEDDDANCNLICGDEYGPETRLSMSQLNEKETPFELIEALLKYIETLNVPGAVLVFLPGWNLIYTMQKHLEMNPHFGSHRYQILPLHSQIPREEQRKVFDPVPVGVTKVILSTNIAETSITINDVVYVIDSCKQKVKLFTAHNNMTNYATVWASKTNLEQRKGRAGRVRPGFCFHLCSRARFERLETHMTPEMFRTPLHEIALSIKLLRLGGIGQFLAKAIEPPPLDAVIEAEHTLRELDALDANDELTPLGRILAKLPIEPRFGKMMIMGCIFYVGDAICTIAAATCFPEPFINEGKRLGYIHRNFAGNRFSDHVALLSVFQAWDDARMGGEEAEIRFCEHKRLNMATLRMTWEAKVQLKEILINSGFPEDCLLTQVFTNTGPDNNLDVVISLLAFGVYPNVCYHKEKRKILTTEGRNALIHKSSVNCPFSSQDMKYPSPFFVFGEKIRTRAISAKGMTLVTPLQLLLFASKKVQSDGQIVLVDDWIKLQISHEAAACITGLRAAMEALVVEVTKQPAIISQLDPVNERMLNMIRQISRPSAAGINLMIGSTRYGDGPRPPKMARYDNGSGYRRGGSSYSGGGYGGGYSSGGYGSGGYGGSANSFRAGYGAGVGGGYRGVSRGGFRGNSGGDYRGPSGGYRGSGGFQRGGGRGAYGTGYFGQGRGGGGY

Regarding AAUAAA, the EC50 amounted to 0.667 µM with CELF1; 1.25 µM in the data set with CELF2; 4.05 µM in the data set with DHX9; 1.34 µM in the data set with DIS3L2; 2.92 µM with LIN28B; 10.7 µM with PHAX.
Take CUGUCCU: the EC50 with CELF1 turned out to be 6.72 µM; with CELF2, 2.67 µM; with DHX9, 0.546 µM; in the data set with DIS3L2, 1.18 µM; with LIN28B, 2.3 µM; with PHAX, 1.35 µM.
Regarding UAUUUAU, the EC50 turned out to be 0.555 µM in the data set with CELF1; 0.517 µM with CELF2; 1.87 µM with DHX9; 0.376 µM with DIS3L2; 1.47 µM with LIN28B; 9.1 µM with PHAX.
